The test system of assay [1] is TβRII receptors (TβRII-A, TβRII-B and TβRII-SE) mRNA in hASCs. The experiment in a line: RT-PCR / qRT-PCR of TβRII isoform mRNA in transduced hASC. Type of assay: cell-based, human. As to the method:
To further assess the agonistic role of the TβRII-SE isoform, hASCs were transduced with Lt-TβRII-SE, Lt-TβRIIA-DN, and Lt.eGFP, at an MOI of 150 as described in the examples. Seventy two hours after transduction the percentage of eGFP expressing cells was measured by flow cytometry (FIG. 11A).
mRNA levels of all three isoforms of Type II TGF-β receptor were also quantified by qRT-PCR (FIG. 13).
Total RNA from different primary cultures and cell lines was isolated using the Absolutely RNA kit (Stratagene, La Jolla, Calif., USA). First-strand cDNA was synthesized by mixing 1 μg of DNA free total RNA, 50 pmol primer p(DT)15 (Roche Diagnostics GmbH, Mannheim, Germany), 0.5 mM deoxyribonucleotide triphosphate, 5 mM dithiothreitol, and 1 U Expand Reverse Transcriptase (Roche Diagnostics GmbH). cDNA corresponding to different isoforms of TβRII receptor was detected by PCR amplification in the presence of Expand High Fidelity polymerase (Roche Diagnostics GmbH), 0.2 mM dNTPS, and 0.5 μM of each primer (forward: 5′[…]3′ (SEQ ID No. 10) and reverse: 5′[…]3′ (SEQ ID No. 11) for 35 cycles using the following PCR conditions: 1 min. at 95° C., 1 min. at 55° C., and 1 min. at […]

The next assay concerns A549 cells. The experiment in a line: MTT proliferation assay in transduced A549 cells with TGFβ-1. Type of assay: cell-based, human. How it is done: Additionally, to check whether TβRII-SE acts as a TGFβ-1 agonist, A459 cells either overexpressing TβRII-SE or not (untransduced cells or UT) were incubated in the presence of increasing concentrations of TGFβ-1 (FIG. 10B). […] However, in cells overexpressing TβRII-SE, proliferation started to decrease at a TGFβ-1 concentration of 0.1 nM compared to the same cell line without the addition of TGF-β1.
A549 cells were transduced with lentiviral vectors at a multiplicity of infection (MOI) of 50 in the presence of 8 μg/ml polybrene. Percentage of eGFP positive cells was measured in a FACscalibur (Becton Dikinson) cytometer.
Cells were harvested, counted, and inoculated at the appropriate concentrations into 96-well plates using a multichannel pipette. After 24 hr, TGF-β1 (10 ng/ml and 20 ng/ml; Sigma) was added to the culture wells, and cultures were incubated for 24 hr and 48 hr at 37° C., under an atmosphere of 5% CO2. MTT (3-(4,5-dimethylthiazol-2-yl)-2,5-diphenyltetrazolium bromide) (Sigma) solution at a concentration of 5 mg/ml was added to the media and the cells were further incubated for 4 hr. After replacing 100 μl of supernatant with 100 μl of DMSO, the absorbance of each well was determined at 540 nm with a SEAC (Sirio S) photometer (Italy). The percentage of cell survival was defined as the relative absorbance of treated versus untreated cells.
(In general: Formazan colour is commonly taken as a measure of viable cells.)

B1: TβRII-SE: 80 amino acid soluble endogenous isoform of human TGF-β receptor II lacking the transmembrane domain, SEQ ID No. 2 (protein, listed as Homo sapiens)
chain: MGRGLLRGLWPLHIVLWTRIASTIPPHVQKSVNNDMIVTDNNGAVKFPQLCKFCDVRFSTCDNQKSCFSKVHYEGKKKAW
For the molecule B1, the “TβRII isoform A expression (RT-PCR, 582 bp band)” value in assay [1] (transduced hASC) is recorded as “downregulates TβRII isoform A expression”. In addition, in assay [1] (transduced hASC vs untransduced), the “TβRII-A and B variants mRNA levels (qRT-PCR)” value is reported as “decreased dramatically”. Further, the “TGFβ-1 concentration at which proliferation started to decrease” value in the assay with A549 cells (cells overexpressing TβRII-SE, increasing TGFβ-1 concentrations (UT cells: 0.2 nM)) was determined as 0.1 nM. In addition, in the assay on A549 cells (transduced A549 cells, 0.4 nM TGFβ-1 vs untreated), the “cell proliferation (MTT)” value is “proliferate significantly less than the same cells not treated with TGFβ-1”.

The values are drawn from US11072647B2, “TGF-receptor II isoform, fusion peptide, methods of treatment and methods in vitro” (Onsejo Nacional DE Investigation Cientiticay Tecnica, priority 2013, dated 2021).
